Reference: patent US20130131319A1 (Chugai, published 2013)

Tests used:
[1] = molecular target: T1, soluble human FcRn (complex of FcRn and beta2-microglobulin) (human, UniProt P55899 24-297; P61769 21-119); assay: Biacore pH 7.0 (Example 9 method)
T1 construct: Secreted from HEK293H
Experimental: (§1) The binding between antibody and human FcRn was kinetically analyzed using Biacore T100 (GE Healthcare). An appropriate amount of protein L (ACTIGEN) was immobilized onto Sensor chip CM4 (GE Healthcare) by the amine-coupling method, and the chip was allowed to capture an antibody of interest. Then, diluted FcRn solutions and running buffer as a reference solution were injected to allow for human FcRn to interact with the antibody captured on the sensor chip. The running buffer used comprised 50 mmol/l sodium phosphate, 150 mmol/l NaCl, and 0.05% (w/v) Tween20 (pH 7.0). FcRn was diluted using each buffer. The chip was regenerated using 10 mmol/l glycine-HCl (pH 1.5). Assays were carried out at 25 degrees C.
(§2) KD (M) of each antibody was derived from the sensorgram data using Biacore T100 Evaluation Software (GE Healthcare), which simultaneously fits the association and dissociation phases of the sensorgrams and globally fits all curves in the working set. Sensorgrams were fit to 1:1 binding model, the “Langmuir binding” model, supplied by Biacore T100 Evaluation Software. For some of the binding interactions, KD was derived by nonlinear regression analysis of plots of Req, the equilibrium binding response, versus the log of the analyte concentration using an equilibrium-based approach.

[2] = molecular target: T1, soluble human FcRn (complex of FcRn and …); assay: Biacore pH 7.0 (Example 9 method); remark: listed apart in the source
Experimental: as §1, §2

[3] = molecular target: T1, soluble human FcRn (complex of FcRn and …); assay: Biacore steady-state, antibody immobilized, pH 6.0, 25C; pH 6.0
Experimental: (§3) The antibodies were tested as a test substance after direct immobilization onto Series S Sensor Chip CM5. Using an amino-coupling kit according to the supplier's instruction manual, the antibodies were immobilized onto Sensor Chip so as to secure an immobilization amount of 500 RU. The running buffer used was 50 mmol/l Na-phosphate/150 mmol/l NaCl containing 0.05% (v/v %) Surfactant P20 (pH 6.0).
(§4) With the prepared sensor chips, assay was carried out using as a running buffer, 50 mmol/l Na-phosphate/150 mmol/l NaCl containing 0.05% Surfactant P20 (pH 6.0) or 50 mmol/l Na-phosphate/150 mmol/l NaCl containing 0.05% Surfactant P20 (pH 7.4). Assays were carried out exclusively at 25 degrees C. The diluted human FcRn solutions and running buffer as a reference solution were injected at a flow rate of 5 microliter/min for ten minutes to allow for human FcRn to interact with the antibody on the chip. Next, the running buffer was injected at a flow rate of 5 microliter/min for one minute to monitor the dissociation of FcRn. […]
(§5) The assay results were analyzed using Biacore T100 Evaluation Software (Ver. 2.0.1). By a steady-state affinity method, the dissociation constant (KD) was calculated from the assay results at six different FcRn concentrations.

[4] = molecular target: T1, soluble human FcRn (complex of FcRn and …); assay: Biacore steady-state, antibody immobilized, pH 7.4, 25C; pH 7.4
Experimental: as §3, §4, §5

[5] = molecular target: T1, soluble human FcRn (complex of FcRn and …); assay: Biacore pH 7.0
Experimental: The binding between antibody and human FcRn was kinetically analyzed using Biacore T100 (GE Healthcare). […] An appropriate amount of protein L (ACTIGEN) was immobilized onto Sensor chip CM4 (GE Healthcare) by the amino coupling method, and the chip was allowed to capture an antibody of interest. Then, diluted FcRn solutions and running buffer (as a reference solution) were injected to allow human FcRn to interact with the antibody captured on the sensor chip. The running buffer used comprised 50 mmol/l sodium phosphate, 150 mmol/l NaCl, and 0.05% (w/v) Tween20 (pH 7.0). FcRn was diluted using each buffer. The chip was regenerated using 10 mmol/l glycine-HCl (pH 1.5). Assays were carried out exclusively at 25 degrees C. The association rate constant ka (1/Ms) and dissociation rate constant kd (1/s), both of which are kinetic parameters, were calculated based on the sensorgrams obtained in the assays, and KD (M) of each antibody for human FcRn was determined from these values. Each parameter was calculated using Biacore T100 Evaluation Software (GE Healthcare).

[6] = molecular target: T1, soluble human FcRn (complex of FcRn and …); assay: Biacore steady-state, antibody immobilized, pH 6.0, 25C
Experimental: as §3, §4, §5

[7] = molecular target: T1, soluble human FcRn (complex of FcRn and …); assay: Biacore steady-state, antibody immobilized, pH 7.4, 25C
Experimental: as §3, §4, §5

T1 sequence (P55899 24-297 limits assumed, chain 1 of 2): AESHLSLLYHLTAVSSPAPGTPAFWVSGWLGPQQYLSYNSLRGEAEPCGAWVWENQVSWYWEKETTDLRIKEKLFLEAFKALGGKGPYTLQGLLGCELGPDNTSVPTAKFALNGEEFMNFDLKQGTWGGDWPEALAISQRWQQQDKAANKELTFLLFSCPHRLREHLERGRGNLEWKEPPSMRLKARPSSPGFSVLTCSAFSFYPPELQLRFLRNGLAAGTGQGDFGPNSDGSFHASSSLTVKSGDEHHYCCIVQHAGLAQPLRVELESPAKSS
T1 sequence (P61769 21-119 limits assumed, chain 2 of 2): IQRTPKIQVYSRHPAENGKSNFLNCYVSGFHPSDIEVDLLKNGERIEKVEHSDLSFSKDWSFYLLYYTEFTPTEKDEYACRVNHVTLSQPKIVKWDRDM

B1: VH3/L (WT)-M73 (antibody)
heavy: QVQLQESGPGLVKPSETLSLTCAVSGHSISHDHAWSWVRQPPGEGLEWIGFISYSGITNYNPSLQGRVTISRDNSKNTLYLQMNSLRAEDTAVYYCARSLARTTAMDYWGEGTLVTVSSASTKGPSVFPLAPSSKSTSGGTAALGCLVKDYFPEPVTVSWNSGALTSGVHTFPAVLQSSGLYSLSSVVTVPSSNFGTQTYTCNVDHKPSNTKVDKTVERKSCVECPPCPAPPVAGPSVFLFPPKPKDTLMISRTPEVTCVVVDVSQEDPEVQFNWYVDGVEVHNAKTKPREEQFNSTFRVVSVLTVVHQDWLNGKEYKCKVSNKGLPAPIEKTISKTKGQPREPQVYTLPPSQEEMTKNQVSLTCLVKGFYPSDIAVEWESNGQPENNYKTTPPMLDSDGSFFLYSKLTVDKSRWQEGNVFSCSVMHEALHAHYTQKSLSLSP
light: not shown
notes: copies: 2 + 2
- Kd [1]: 14 µM
- Kd [2]: 14 µM

B2: Fv4-IgG1-v1 (antibody)
heavy: QVQLQESGPGLVKPSETLSLTCAVSGHSISHDHAWSWVRQPPGEGLEWIGFISYSGITNYNPSLQGRVTISRDNSKNTLYLQMNSLRAEDTAVYYCARSLARTTAMDYWGEGTLVTVSSASTKGPSVFPLAPSSKSTSGGTAALGCLVKDYFPEPVTVSWNSGALTSGVHTFPAVLQSSGLYSLSSVVTVPSSSLGTQTYICNVNHKPSNTKVDKKVEPKSCDKTHTCPPCPAPELLGGPSVFLFPPKPKDTLYITREPEVTCVVVDVSHEDPEVKFNWYVDGVEVHNAKTKPREEQYNSTYRVVSVLTVLHQDWLNGKEYKCKVSNKALPAPIEKTISKAKGQPREPQVYTLPPSRDELTKNQVSLTCLVKGFYPSDIAVEWESNGQPENNYKTTPPVLDSDGSFFLYSKLTVDKSRWQQGNVFSCSVMHEALHNHYTQKSLSLSP
light: DIQMTQSPSSLSASVGDSVTITCQASTDISSHLNWYQQKPGKAPELLIYYGSHLLSGVPSRFSGSGSGTDFTFTISSLEAEDAATYYCGQGNRLPYTFGQGTKVEIERTVAAPSVFIFPPSDEQLKSGTASVVCLLNNFYPREAKVQWKVDNALQSGNSQESVTEQDSKDSTYSLSSTLTLSKADYEKHKVYACEVTHQGLSSPVTKSFNRGEC
notes: copies: 2 + 2
- Kd [3]: 320 nM
- Kd [4]: 36.6 µM

B3: IgG1-F455 (antibody)
heavy: QVQLQESGPGLVKPSETLSLTCAVSGHSISHDHAWSWVRQPPGEGLEWIGFISYSGITNYNPSLQGRVTISRDNSKNTLYLQMNSLRAEDTAVYYCARSLARTTAMDYWGEGTLVTVSSASTKGPSVFPLAPSSKSTSGGTAALGCLVKDYFPEPVTVSWNSGALTSGVHTFPAVLQSSGLYSLSSVVTVPSSSLGTQTYICNVNHKPSNTKVDKKVEPKSCDKTHTCPPCPAPELLGGPSVFLFPPKPKDTLMISRTVEVTCVVVDVSHEDPEVKFNWYVDGVEVHNAKTKPREEQYNSTYRVVSVLQVLHQDWLNGKEYKCKVSNKALPAPIEKTISKAKGQPREPQVYTLPPSRDELTKNQVSLTCLVKGFYPSDIAVEWESNGQPENNYKTTPPVLDSDGSFFLYSKLTVDKSRWQQGNVFSCSVYHEALHYHYTQKSLSLSP
light: not shown
notes: copies: 2 + 2
- Kd [5]: 25 nM

B4: Fv4-IgG1-v2 (antibody)
heavy: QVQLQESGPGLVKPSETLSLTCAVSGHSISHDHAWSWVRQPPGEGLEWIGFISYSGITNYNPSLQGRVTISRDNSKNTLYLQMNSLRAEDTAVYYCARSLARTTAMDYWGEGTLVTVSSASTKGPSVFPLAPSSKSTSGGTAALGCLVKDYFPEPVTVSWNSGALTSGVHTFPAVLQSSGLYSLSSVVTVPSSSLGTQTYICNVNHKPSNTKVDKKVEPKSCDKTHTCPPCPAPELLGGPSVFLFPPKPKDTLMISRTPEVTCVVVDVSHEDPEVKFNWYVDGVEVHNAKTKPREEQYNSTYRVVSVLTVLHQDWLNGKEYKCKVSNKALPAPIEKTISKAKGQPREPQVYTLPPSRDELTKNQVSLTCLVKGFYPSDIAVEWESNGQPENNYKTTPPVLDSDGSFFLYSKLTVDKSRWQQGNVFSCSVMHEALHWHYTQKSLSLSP
light: DIQMTQSPSSLSASVGDSVTITCQASTDISSHLNWYQQKPGKAPELLIYYGSHLLSGVPSRFSGSGSGTDFTFTISSLEAEDAATYYCGQGNRLPYTFGQGTKVEIERTVAAPSVFIFPPSDEQLKSGTASVVCLLNNFYPREAKVQWKVDNALQSGNSQESVTEQDSKDSTYSLSSTLTLSKADYEKHKVYACEVTHQGLSSPVTKSFNRGEC
notes: copies: 2 + 2
- Kd [6]: 110 nM
- Kd [7]: 11 µM
